From the supplement of paper PMC7877785
± gives the uncertainty stated by the source.

Experiment: self-splicing fitness, log relative to wild type (ln ratio); higher = more splicing; Tetrahymena group I intron in knt gene, E. coli kanamycin selection, DiMSum; sequences stand for … in CUCUCU…GGAGGGAAAAGUUAUCAGGCAUGCACCUGGUAGCUAGUCUUUAAACCAAUAGAUUGCAUCGGUUUAAAAGGCAAGACCGUCAAAUUGCGGGAAAGGGGUCAACAGCCGUUCAGUACCAAGUCUCAGGGGAAACUUUGAGAUGGCCUUGCAAAGGGUAUGGUAAUAAGCUGACGGACAUGGUCCUAACCACGCAGCCAAGUCCUAAGUCAACAGAUCUUCUGUUGAUAUGGAUGCAGUUCACAGACUAAAUGUCGGUCGGGGAAGAUGUAUUCUUCUCAUAAGAUAUAGUCGGACCUCUCCUUAAUGGGAGCUAGCGGAUGAAGUGAUGCAACACUGGAGCCGCUGGGAACUAAUUUGUAUGCGAAAGUAUAUUGAUUAGUUUUGGAGUACUCGUGGUCG
Outline: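 DiMSum derived fitness as the error-weighted combination of fold changes across replicates, kanamycin versus no kanamycin, normalised to wild type. E. coli BL21(DE3) held the library, which randomised all eight P1ex-region intron nucleotides within the knt kanamycin-resistance gene on pET-22b(+). Six replicate transformations grew overnight at 37°C or 30°C on LB agar with or without 25 μg/mL kanamycin, also containing 100 μg/mL carbenicillin, 50 μM IPTG and 0.2% rhamnose, and pooled colonies were amplicon-sequenced on an Illumina HiSeq 2500.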

| Sequence | self-splicing fitness (ln) (30 °C) | self-splicing fitness (ln) (37 °C) |
| --- | --- | --- |
| GUAGAGCAAUAUUACGGAUU | -2.61 ± 0.24 | -0.513 ± 0.2 |
| AGUCAGCAAUAUUACGUCAG | -2.65 ± 0.16 | -1.86 ± 0.15 |
| GUAAAGCAAUAUUACGCAUG | -1.15 ± 0.077 | -0.761 ± 0.1 |
| ACAAAGCAAUAUUACGAACA | -2.3 ± 0.12 | -0.578 ± 0.1 |
| UCGAAGCAAUAUUACGCGUU | -3.93 ± 0.21 | -1.47 ± 0.18 |
| UGAUAGCAAUAUUACGUAGA | -2.3 ± 0.15 | -0.984 ± 0.17 |
| CCACAGCAAUAUUACGUUGA | -3.67 ± 0.17 | -3.31 ± 0.18 |
| CCCAAGCAAUAUUACGCCCU | -3.14 ± 0.43 |  |
| GCCUAGCAAUAUUACGGCCU | -2.48 ± 0.18 | -1.33 ± 0.24 |
| AAGAAGCAAUAUUACGUUUC | -3.62 ± 0.23 | -3.15 ± 0.26 |
| UCCGAGCAAUAUUACGCGGC | -3.97 ± 0.35 | -2.46 ± 0.29 |
| CUCGAGCAAUAUUACGGGUU | -3.47 ± 0.14 | -3.05 ± 0.16 |
| GUCAAGCAAUAUUACGACCG | -3.14 ± 0.42 |  |
| GCAAAGCAAUAUUACGAUUU | -0.938 ± 0.06 | -0.449 ± 0.082 |
| CUCGAGCAAUAUUACGAUAG | -1.11 ± 0.15 | -0.333 ± 0.15 |
| UGCGAGCAAUAUUACGUGCU |  | -1.79 ± 0.32 |
| AAGGAGCAAUAUUACGGCCA | -1.83 ± 0.19 | -1.66 ± 0.27 |
| GUAAAGCAAUAUUACGAGCU | -1.4 ± 0.13 | -0.306 ± 0.18 |
| CUGGAGCAAUAUUACGAAGG | -3.43 ± 0.28 | -1.97 ± 0.27 |
| GGCAAGCAAUAUUACGUAUC | -0.35 ± 0.063 | 0.0433 ± 0.083 |
| GAUGAGCAAUAUUACGCGAC | -1.69 ± 0.17 | -0.921 ± 0.15 |
| CAGGAGCAAUAUUACGAACC |  | -1.07 ± 0.24 |
| GUUUAGCAAUAUUACGAUUA | -1.93 ± 0.16 | -1.01 ± 0.2 |
| GCUAAGCAAUAUUACGCAGG | -2.8 ± 0.26 | -3.55 ± 0.39 |
| CAGCAGCAAUAUUACGAAAU | -3.94 ± 0.25 | -2.97 ± 0.27 |
| UUUAAGCAAUAUUACGGAGC | -1.94 ± 0.25 | -1.43 ± 0.47 |

| Sequence | self-splicing fitness (ln) (30 °C) | self-splicing fitness (ln) (37 °C) |
| --- | --- | --- |
| CGAAAGCAAUAUUACGCUAC | -2.53 ± 0.3 |  |
| CGUAAGCAAUAUUACGUAUC | -3.12 ± 0.24 | -3.6 ± 0.24 |
| UCACAGCAAUAUUACGUUCA | -0.499 ± 0.074 | -0.438 ± 0.078 |
| ACAGAGCAAUAUUACGCAAC |  | -2.1 ± 0.41 |
| GUGGAGCAAUAUUACGGACC | -1.56 ± 0.38 |  |
| ACUCAGCAAUAUUACGAUUC | -1.63 ± 0.087 | -0.302 ± 0.1 |
| CUACAGCAAUAUUACGUAUU | -4.19 ± 0.2 | -2.94 ± 0.18 |
| AACUAGCAAUAUUACGCGCA | -0.47 ± 0.099 | 0.116 ± 0.12 |
| GGCUAGCAAUAUUACGAGUG | -0.589 ± 0.084 | 0.347 ± 0.12 |
| ACGGAGCAAUAUUACGGGAA | -4.37 ± 0.36 | -2.03 ± 0.31 |
| GGAGAGCAAUAUUACGGCAU | -2.03 ± 0.22 | 0.206 ± 0.22 |
| GAAGAGCAAUAUUACGUUAC | -2.82 ± 0.17 | -2.7 ± 0.2 |
| GUGCAGCAAUAUUACGAGCC | -1.65 ± 0.2 |  |
| CUAUAGCAAUAUUACGCAAG | -3.11 ± 0.2 | -2.22 ± 0.18 |
| ACAGAGCAAUAUUACGAUUC | -2.88 ± 0.27 | -1.72 ± 0.31 |
| CAUAAGCAAUAUUACGUCGC | -4.06 ± 0.18 | -3.2 ± 0.17 |
| UAGCAGCAAUAUUACGCUUG | -2.3 ± 0.18 | -0.988 ± 0.19 |
| GGACAGCAAUAUUACGCCAA | -0.506 ± 0.14 | -1.24 ± 0.23 |
| UAAUAGCAAUAUUACGUGUA | -2.19 ± 0.12 | -0.918 ± 0.1 |
| UUAGAGCAAUAUUACGAGUC |  | -2.53 ± 0.49 |
| CGCAAGCAAUAUUACGAAAU | -3.48 ± 0.21 | -1.86 ± 0.18 |
| GAGAAGCAAUAUUACGGGUA | -2.02 ± 0.15 | -2.14 ± 0.16 |
| AUGUAGCAAUAUUACGCAUU | -3.93 ± 0.18 | -2.89 ± 0.23 |
| ACGAAGCAAUAUUACGUCAC | -4.98 ± 0.39 | -2.43 ± 0.16 |
| GGACAGCAAUAUUACGAGAG | -3.81 ± 0.18 | -2.09 ± 0.11 |
